Results: PMC6891888

What was measured:
[1] = target: BG505 NFL CC+ trimer (HIV-1 (strain BG505)); test: cryo-EM structure
[2] = target: 16055 NFL TD 2CC+ trimer (HIV-1 (strain 16055)); test: cryo-EM structure

Substance: BG505 NFL CC+ trimer (domain or fragment)
- stoichiometry N [1]: 3

Substance: 16055 NFL TD 2CC+ trimer (domain or fragment)
- stoichiometry N [2]: 3
